According to paper PMC3487758, “Fibrillin-1 Mutations Causing Weill-Marchesani Syndrome and Acromicric and Geleophysic Dysplasias Disrupt Heparan Sulfate Interactions” (PLoS ONE, 2012):

Molecular target: the molecule itself
Assay: SEC-MALS; MALLS on each separated gel filtration peak; Wyatt EOS 18-angle light scattering detector, Optilab r-EX refractometer

B1: Fibrillin-1 fragment PF17-1 WMS (Weill-Marchesani syndrome deletion mutant) (domain or fragment)
chain: not shown
notes: human fibrillin-1, fragment PF17-1 (exons 30-43, residues 1238-1807) with the 8 amino acid deletion in TB5 found in patients with WMS; Purifies as a monomer (86%) and a disulfide-linked dimer (14%); the deletion removes Cys 1695; also called WMS mutant
- stoichiometry N: 2
